Laboratory results: paper PMC11291975, “Chemotherapy-induced acetylation of ACLY by NAT10 promotes its nuclear accumulation and acetyl-CoA production to drive chemoresistance in hepatocellular carcinoma” (Cell Death & Disease, 2024)

Molecular target: T1, GST-ACLY (UniProt P53396 1-1101)
T1 construct: ATP citrate lyase (ACLY), cloned into pGEX-4T1; also called GST-ACLY protein; source: E. coli BL21 (DE3), purified (Glutathione Sepharose 4B)
T1 sequence (looked up): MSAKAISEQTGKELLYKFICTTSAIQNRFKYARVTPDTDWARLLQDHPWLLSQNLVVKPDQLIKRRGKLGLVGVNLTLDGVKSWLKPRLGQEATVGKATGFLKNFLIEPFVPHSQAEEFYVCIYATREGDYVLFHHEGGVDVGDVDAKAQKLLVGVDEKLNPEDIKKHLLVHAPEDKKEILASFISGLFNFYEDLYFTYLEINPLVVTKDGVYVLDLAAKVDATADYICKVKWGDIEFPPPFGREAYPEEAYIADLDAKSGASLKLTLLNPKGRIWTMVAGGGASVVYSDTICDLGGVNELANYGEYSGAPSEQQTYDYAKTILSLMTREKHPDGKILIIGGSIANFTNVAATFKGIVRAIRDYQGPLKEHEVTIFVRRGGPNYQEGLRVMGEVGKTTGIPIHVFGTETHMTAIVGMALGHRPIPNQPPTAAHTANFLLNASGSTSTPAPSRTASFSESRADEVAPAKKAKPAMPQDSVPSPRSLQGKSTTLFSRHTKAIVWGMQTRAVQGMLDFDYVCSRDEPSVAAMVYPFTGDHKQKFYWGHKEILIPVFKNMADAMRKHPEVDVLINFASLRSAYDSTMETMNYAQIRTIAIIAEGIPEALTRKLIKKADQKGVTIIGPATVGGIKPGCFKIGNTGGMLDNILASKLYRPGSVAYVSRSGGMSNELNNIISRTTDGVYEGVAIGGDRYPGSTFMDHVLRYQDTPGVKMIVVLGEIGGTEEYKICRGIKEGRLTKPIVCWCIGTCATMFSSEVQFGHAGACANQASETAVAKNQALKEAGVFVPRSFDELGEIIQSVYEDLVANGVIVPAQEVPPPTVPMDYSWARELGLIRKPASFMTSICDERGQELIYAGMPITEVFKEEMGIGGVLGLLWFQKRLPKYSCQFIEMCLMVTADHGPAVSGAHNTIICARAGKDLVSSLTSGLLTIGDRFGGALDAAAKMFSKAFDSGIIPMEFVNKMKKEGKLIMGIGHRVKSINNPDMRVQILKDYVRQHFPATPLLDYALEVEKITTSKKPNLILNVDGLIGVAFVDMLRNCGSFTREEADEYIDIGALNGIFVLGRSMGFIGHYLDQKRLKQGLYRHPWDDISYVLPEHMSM
Assay: pull-down; GST-ACLY or GST-ACLY deletion mutants bound to Glutathione Sepharose 4B, incubated with purified Flag-NAT10; WB with anti-Flag
Settings: both partners purified

B1: Flag-NAT10-His (natural protein, UniProt Q9H0A0 1-1025, looked up)
chain: MHRKKVDNRIRILIENGVAERQRSLFVVVGDRGKDQVVILHHMLSKATVKARPSVLWCYKKELGFSSHRKKRMRQLQKKIKNGTLNIKQDDPFELFIAATNIRYCYYNETHKILGNTFGMCVLQDFEALTPNLLARTVETVEGGGLVVILLRTMNSLKQLYTVTMDVHSRYRTEAHQDVVGRFNERFILSLASCKKCLVIDDQLNILPISSHVATMEALPPQTPDESLGPSDLELRELKESLQDTQPVGVLVDCCKTLDQAKAVLKFIEGISEKTLRSTVALTAARGRGKSAALGLAIAGAVAFGYSNIFVTSPSPDNLHTLFEFVFKGFDALQYQEHLDYEIIQSLNPEFNKAVIRVNVFREHRQTIQYIHPADAVKLGQAELVVIDEAAAIPLPLVKSLLGPYLVFMASTINGYEGTGRSLSLKLIQQLRQQSAQSQVSTTAENKTTTTARLASARTLYEVSLQESIRYAPGDAVEKWLNDLLCLDCLNITRIVSGCPLPEACELYYVNRDTLFCYHKASEVFLQRLMALYVASHYKNSPNDLQMLSDAPAHHLFCLLPPVPPTQNALPEVLAVIQVCLEGEISRQSILNSLSRGKKASGDLIPWTVSEQFQDPDFGGLSGGRVVRIAVHPDYQGMGYGSRALQLLQMYYEGRFPCLEEKVLETPQEIHTVSSEAVSLLEEVITPRKDLPPLLLKLNERPAERLDYLGVSYGLTPRLLKFWKRAGFVPVYLRQTPNDLTGEHSCIMLKTLTDEDEADQGGWLAAFWKDFRRRFLALLSYQFSTFSPSLALNIIQNRNMGKPAQPALSREELEALFLPYDLKRLEMYSRNMVDYHLIMDMIPAISRIYFLNQLGDLALSAAQSALLLGIGLQHKSVDQLEKEIELPSGQLMGLFNRIIRKVVKLFNEVQEKAIEEQMVAAKDVVMEPTMKTLSDDLDEAAKEFQEKHKKEVGKLKSMDLSEYIIRGDDEEWNEVLNKAGPNASIISLKSDKKRKLEAKQEPKQSKKLKNRETKNKKDMKLKRKK
notes: N-acetyltransferase 10 (NAT10), cloned into pFast-Bac1 as Flag-NAT10-His; also called purified Flag-NAT10; source: baculovirus-infected sf9 cells, purified (Ni-NTA agarose)
Q: Does B1 bind?
A: binds
